Biological target: T1, OhrR-C (chromosomal OhrR) (Acinetobacter baumannii ATCC 19606) (UniProt A0A077GRS4)
T1 sequence: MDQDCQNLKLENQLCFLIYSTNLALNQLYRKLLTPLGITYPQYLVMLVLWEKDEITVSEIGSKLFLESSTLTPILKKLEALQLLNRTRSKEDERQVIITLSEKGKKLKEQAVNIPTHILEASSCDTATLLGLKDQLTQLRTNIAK
Assay: EMSA
Settings: 20 mM Tris-HCl pH 7.5, 100 mM MgCl2, 150 mM KCl, 50 mM EDTA, 12.5% glycerol, 250 uM DTT, 830 ng/mL poly(dI-dC), 250 ng/mL BSA, 50 nM DNA; room temperature …

In the case of “TGTATATTACCTTGCTTAATATTATATTGTGTAAAATATAATTGCACACAATTAAATATAGGTCAATTATTTTCCTTTGTTTTTTATTTAACATAATGGGCGTTATATGAAATTCAAAAAAATGATACTATTTTTGTGATAATTAAATAAATTTTAGGTGAACATAAGTTAAATAGAGCTTATATCGGCC (double strand) [Pohr-p]”, the binding is reported as “binds more weakly”.
